What was measured:
mouse skin = test: TGF-β-induced dermal fibrosis in vivo in mouse skin; details: mice, intradermal, 10 μg/ml with TGF-β 10 ng/ml, one week post-injection
Description: FIG. 9. E4 reverses TGF β-induced dermal fibrosis even if administered 3 days following TGF-β.
CB57BL6/J male mice were purchased from The Jackson Laboratory (Bar Harbor, Me.). Human rE (10 μg/ml) or Endostatin peptides (10 μg/ml) in combination with TGF-β (10 ng/ml), or TGF-β alone were injected intradermally on the back of mice in a total volume of 100 μl 1×PBS. Mice were injected in two different skin sites and sacrificed one week post-injection. Skin surrounding the injection site was harvested and fixed in 10% formalin prior to embedding in paraffin.
(§1) Six μm sections of paraffin-embedded human and mouse skin tissues were stained with hematoxylin and eosin (H&E). In some experiments, sections were stained with Masson trichrome which identifies collagens. Images were taken on a Nikon Eclipse 800 microscope. The thickness of the dermis was measured in 6 random fields of each section using the image/J® software. Data are shown in arbitrary units.
E4, a peptide representing the carboxy terminus of human endostatin, can attenuate fibrosis triggered by multiple fibrogenic factors. The anti-fibrotic effects of E4 can be detected whether administered concomitantly with or following the fibrogenic trigger. The efficacy of E4 was confirmed in […] pre-clinical models of fibrosis: a) bleomycin-induced dermal fibrosis in vivo in mouse skin, b) TGF-β induced dermal fibrosis in mouse skin, and c) bleomycin-induced pulmonary fibrosis. E4 peptide or a control peptide (E1; representing the amino terminal region of endostatin) were administered at the same time as TGF-β or bleomycin or 3-4 days following TGF-β or bleomycin. Mice were sacrificed one and two weeks after TGF-β-initiation of dermal fibrosis, and two and three weeks after bleomycin-induced pulmonary fibrosis. Two different modes of administration of the E4 peptide were also tested. It was confirmed that intraperitoneal and intratracheal administration was effective. The amount of E4 that was administered ws 10 μg/ml in a total volume of 100 μl for skin and IP injections and 50 μl for IT administration.

[1] = system: human primary lung fibroblasts; test: FN and Col1α1 western blot in TGF-β-treated primary lung fibroblasts; type: cell-based; details: normal human lung fibroblasts; TGF-β 10 ng/ml 24 h, then 5 μg/ml rE or peptide 48 h; vs TGF-β alone
Description: (§2) Human primary lung and skin fibroblasts were cultured. The explanted lungs of normal organ donors, patients with SSc or IPF, and clinically involved skin of SSc patients, a morphea patient and healthy donors were used for primary fibroblast culture. Approximately 2-cm pieces of peripheral lung and skin were minced and fibroblasts were cultured in Dulbecco's modified Eagle's medium (DMEM; Mediatech, Herndon, Va.) supplemented with 10% FBS, penicillin, streptomycin, and anti-mycotic agent, as previously described (Feghali et al., Arthritis Rheum 1999; 42:1451-7). All the cells were used between passages 3-6.
Cellular lysates were obtained from cultured fibroblasts as previously described (Pilewski et al., Am J Pathol 2005; 166:399-407). Briefly, 2.0×10^5 primary fibroblasts were cultured in 35-mm wells in 0.5% FBS-containing medium supplemented with 10 ng/ml of human recombinant TGF-β or PBS as vehicle control for 24 h, following which 5 μg/ml of human rE, endostatin peptides (E1-E4), or DMSO (vehicle) was added for 48 h. In some experiments, endostatin peptides were used without TGF-β stimulation. Cellular lysates were analyzed by western blot. Signals were detected following incubation with horseradish peroxidase-conjugated secondary antibody and chemiluminescence (Perkin Elmer Life Sciences, Inc., Boston, Mass.). The intensity of individual bands with expected molecular sizes was semi-quantitatively analyzed using the image/J® software available at on the internet (/rsb.info.nih.gov/ij/index.html), and normalized to individual GAPDH intensity.
To evaluate whether endostatin modulates production of ECM components in fibroblasts, FN and Col1α1 expression was examined in normal human lung fibroblasts by western blot analysis. Cells were treated with 5 µg/ml rE for 48 h with or without pre-stimulation with human TGF-β for 24 h. […] To define the functional domain of endostatin that mediates its inhibitory effect, four different peptides were synthesized corresponding to different regions of endostatin (Table 1).

human skin explants = test: Ex vivo human skin fibrosis organ culture, dermal thickness; type: cell-based; details: for dermal thickness, baseline effect: injected alone without TGF-β, rE 1, 5, 10 μg/ml, peptides 10 μg/ml
Description: Human abdominal skin was obtained from corrective plastic surgery. As previously described (Yasuoka et al., The Open Rheumatol J 2008; 2:17-22), subcutaneous fat tissue was removed uniformly and skin tissue was cut into 1.5 cm×1.5 cm sections. The following were injected intradermally in a total volume of 100 μl 1×PBS: rE alone (1-10 μg/ml), endostatin peptides alone (10 μg/ml), rE or endostatin peptides (1-20 μg/ml) in combination with TGF-β (10 ng/ml), and TGF-β alone (10 ng/ml). In some experiments, human skin was first injected with TGF-β for 48 h followed by recombinant endostain (rE) administration in the same injection site as TGF-β. Explants containing complete epidermal and dermal layers were cultured in an air liquid interface with the epidermal and keratin layers side up and exposed to air. The culture medium was replaced every other day. After 1 or 2 weeks, skin tissue corresponding to an area with 8-mm diameter centered around the injection site was harvested using disposable 8-mm Acu Punch® (Acuderm inc., Lauderdale, Fla.). Skin tissue was fixed in 10% formalin prior to embedding in paraffin.
as §1

[2] = system: human primary skin fibroblasts; test: TGF-β-induced ECM production in primary skin (dermal) fibroblasts, western blot; type: cell-based; details: dermal fibroblasts from healthy controls, SSc or morphea patients
Description: as §2
Cellular lysates were obtained from cultured fibroblasts as previously described (Pilewski et al., Am J Pathol 2005; 166:399-407). […] Cellular lysates were analyzed by western blot. Signals were detected following incubation with horseradish peroxidase-conjugated secondary antibody and chemiluminescence (Perkin Elmer Life Sciences, Inc., Boston, Mass.). The intensity of individual bands with expected molecular sizes was semi-quantitatively analyzed using the image/J® software available at on the internet (/rsb.info.nih.gov/ij/index.html), and normalized to individual GAPDH intensity. […]

[3] = system: Human umbilical vein endothelial cells (HUVECs); test: Tubular formation assay in Matrigel; type: cell-based; details: 50 nM, 24 hours
Description: The ability of endostatin peptide to inhibit angiogenesis was examined in tubular formation assay using Matrigel® culture. Human umbilical vein endothelial cells (HUVECs) were maintained in endothelial cell basal medium-2 (EBM-2; Clonetics, San Diego, Calif.) supplemented with EBM-2 MV SingleQuots®. HUVECs (5×10^4) were cultured in duplicate on 24-well Matrigel® plates (BD Biosciences, San Diego, Calif.) alone, or in the presence of rE or E4 peptide (50 nM) in EBM-2 at 37° C. DMSO was used as vehicle control. After 24 hours, images were captured using a […] microscope. The degree of cord formation was quantified by measuring the area occupied by tubes in 6 random fields per well. Three independent experiments were performed.

[4] = cited from earlier work

H-^1HSHRDFQPVLHLVALNSPLSGGMRGIRGADFQCFQQARAVGLAGT^45-OH (H-HSHRDFQPVLHLVALNSPLSGGMRGIRGADFQCFQQARAVGLAGT-OH; UniProt P39060 1572-1616, looked up, fragment) [E1, human endostatin fragment, amino acids 1-45; amino terminal control peptide]
TGF-β-induced dermal fibrosis (dermal thickness) (mouse skin): did not alter | FN and Col1α1 levels/production [1]: had no effect

H-^71IVNLKDELLFPSWEALFSGSEGPLKPGARIFSFDGKDVLRHPTWP^115-OH (H-IVNLKDELLFPSWEALFSGSEGPLKPGARIFSFDGKDVLRHPTWP-OH; UniProt P39060 1642-1686, looked up, fragment) [E2, human endostatin fragment, amino acids 71-115]
TGF-β-induced dermal fibrosis (dermal thickness) (mouse skin): significantly reduced

H-^133SYCETWRTEAPSATGQASSLLGGRLLGQSAASCHHAYIVLCIENSFMT^180-OH (H-SYCETWRTEAPSATGQASSLLGGRLLGQSAASCHHAYIVLCIENSFMT-OH; cysteine pairing not given here; UniProt P39060 1704-1751, looked up, fragment) [E3, human endostatin fragment, amino acids 133-180]
TGF-β-induced dermal fibrosis (dermal thickness) (mouse skin): prevented | dermal thickness, baseline effect (human skin explants): tendency towards reduction | development of fibrosis as measured by dermal thickness (human skin explants; peptides 10 μg/ml with TGF-β 10 ng/ml, vs TGF-β alone): significantly abolished

B1: full-length recombinant human endostatin (protein, UniProt P39060 1572-1754, looked up)
Endostatin: HSHRDFQPVLHLVALNSPLSGGMRGIRGADFQCFQQARAVGLAGTFRAFLSSRLQDLYSIVRRADRAAVPIVNLKDELLFPSWEALFSGSEGPLKPGARIFSFDGKDVLRHPTWPQKSVWHGSDPNGRRLTESYCETWRTEAPSATGQASSLLGGRLLGQSAASCHHAYIVLCIENSFMTASK
modifications: Endostatin
notes: full-length recombinant human endostatin purchased from Sigma-Aldrich
TGF-β-induced ECM production (FN, Col1α1) [2]: reduced | TGF-β-induced dermal fibrosis, delayed treatment (human skin explants; injected 2 days after TGF-β administration): significantly ameliorated | dermal thickness, baseline effect (human skin explants): tendency towards reduction | dermal thickness (human skin explants; rE 1, 5, 10 μg/ml injected simultaneously with TGF-β 10 ng/ml, one week, dose-dependent): significantly reduced | FN and Col1α1 levels/production [1]: dramatically reduced | inhibition of tubular structure formation [3]: significant

B2: ENDSTAR: recombinant human endostatin purified from E. coli containing an additional nine-amino acid sequence, his-tagged; approved for non-small-cell lung cancer in China (protein, UniProt P39060 1572-1754, looked up)
Endostatin: HSHRDFQPVLHLVALNSPLSGGMRGIRGADFQCFQQARAVGLAGTFRAFLSSRLQDLYSIVRRADRAAVPIVNLKDELLFPSWEALFSGSEGPLKPGARIFSFDGKDVLRHPTWPQKSVWHGSDPNGRRLTESYCETWRTEAPSATGQASSLLGGRLLGQSAASCHHAYIVLCIENSFMTASK
modifications: Endostatin additional nine-residue His tag
notes: approved for non-small-cell lung cancer in China
half-life [4]: short

— patent publication US10709769B2, “Use of endostatin peptides for the treatment of fibrosis” (University of Pittsburgh—Of the Commonwealth System of …, priority 2009, dated 2020)
